The record followed here is the supplement of paper PMC10201428.

± gives the standard deviation of the averaged measurements.

The data set relates to VchCAST RNA-guided transposition machinery (E. coli BL21(DE3) host, lacZ target). Description: relative integration efficiency (T-RL orientation) vs wild-type transposon end (log2 (normalized fold change)); transposon end mutated: right end (5 bp flank + 75 bp right end); higher = more efficient transposition. The method, boiled down: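 Barcoded pools of 1549 left-end or 1849 right-end transposon variants were cloned into a pUC57 mini-transposon donor. Each pool was co-transformed with a T7-driven effector plasmid (CRISPR array, tniQ-cas8-cas7-cas6, tnsA-tnsB-tnsC) into E. coli BL21(DE3) and plated with 0.1 mM IPTG at 37°C for 18 h. Input plasmids and genomic integration junctions were PCR-amplified and Illumina-sequenced, with two biological output replicates and four wild-type barcodes as reference. Relative integration efficiency is output/input barcode abundance fold change, normalised to wild-type barcodes and log-transformed.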
Consider “ACATTTGTTGATACAACCATAAAATGATCACCCATAAATTGATAATTATCACACCCATAAATTGATATTGCCTCTGATCATAGTCAGACCAACATTGCTACGACCCGTATTCGCACCGACACTGACT”, for which the “relative integration efficiency (log2)” value was -4.08 ± 0.34.
To “ACATTTGTTCATACAACCCTAAAATGATAATTACACCCATAAATGGATCATTATCACCCCCAATTTAACTATAACGCTCTGATCATAGTCAGACCAACATTGCTACGACCCGTATTCGCACCGACAC” belongs -4.59 ± 0.14; to “ACATTTGTTGATACAACCATAAAATGATTTAAACACCCATAAATTGATAATTATCACACCCATAAATTGATATTGCCTCTGATCATAGTCAGACCAACATTGCTACGACCCGTATTCGCACCGACAC”, -0.3814 ± 0.0024; to “ACATTTGTTGATACAACCATAAAATGATAATTACACCCATTAATTGATAATAATGACACCGAATTTAACTATAACGCTCTGATCATAGTCAGACCAACATTGCTACGACCCGTATTCGCACCGACAC”, -1.51 ± 0.32.
To “ACATTTGTTGATACAACCATAAAATGATAATTACACCCATAAATTGATAATTATCACACCCATAAATTGATATTGCCTCTAAAGTGTACAACACTTGAGAAAGTTTACTACAGGTATGCACCGACAC” belongs -0.293 ± 0.28; to “ACATTTGTTGATAAAACCATAAAATGATTATTAGAAACCATAATCTGAAATTATCACACCCATAAATTGATATTGCCTCTGATCATAGTCAGACCAACATTGCTACGACCCGTATTCGCACCGACAC”, -3.26 ± 0.065.
To “ACATTTGTTGATACAACCATAAAGTGATATTTACAACCATAAAATGATAATTATCAGTGGGTATTTAACTATAACGCTCTGATCATAGTCAGACCAACATTGCTACGACCCGTATTCGCACCGACAC” belongs -0.714 ± 0.27.
With “ACATTTGTTGATACACCCATAAATTGATATTGCCAACCATATATTGATATCTCTCACAACCATAAAATGATAATTACTCTGATCATAGTCAGACCAACATTGCTACGACCCGTATTCGCACCGACAC”, the “relative integration efficiency (log2)” value is -1.22 ± 0.23.
The result for “ACATTTGTTGATACAACCATAAAGTGATATTTACACCCATAAATTGATAATTATCACACCCATAAATTGATAATTACTCTGATCATAGTCAGACCAACATTGCTACGACCCGTATTCGCACCGACAC” reads 0.112 ± 0.071.
To “ACATTTGTTGATACAACCATAAAATGATAATTACACCCATAAATTGCGAATTATCACACCCATAAATTGATATTGCCTCTGATCATAGTCAGACCAACATTGCTACGACCCGTATTCGCACCGACAC” belongs -0.3539 ± 0.00067; to “ACATTTGTTGATACAACCATAAAATGATAATTACACCCCGCCCGGTCGCCGGCGACACAAACGCCCGGTCGCGGTAAGAGGATCATAGTCAGACCAACATTGCTACGACCCGTATTCGCACCGACAC”, -2.33 ± 0.061; to “ACATTTGTTGATACAACCATAAAATGATAATTACCCCCATCAATTGATAATTATCCCACCCAATTTAACTATAACGCTCTGATCATAGTCAGACCAACATTGCTACGACCCGTATTCGCACCGACAC”, -2.38 ± 0.22.
The result for “ACATTTGTTGATACAACCATAAGTTGATATTTTCAACCATATATTGATATCTCTCACACCCATAAATTGATAATTACTCTGATCATAGTCAGACCAACATTGCTACGACCCGTATTCGCACCGACAC” reads -0.464 ± 0.15; that for “ACATTTGATGATACTACCATTTAATGATAATAACACCCATAAAATGATAATTATCACACCCAATTTAACTATAACGCTCTGATCATAGTCAGACCAACATTGCTACGACCCGTATTCGCACCGACAC”, -2.14 ± 0.37; that for “ACATTTGTTGATACAACCATAAAATGATAATTACACCCATATTAAGATAATTATCACACCCATAAATTGATATTGCCTCTGATCATAGTCAGACCAACATTGCTACGACCCGTATTCGCACCGACAC”, -0.6107 ± 0.0014.
As to “ACATTTGTTGATTGTTCCATAAAATGATAATTACACCCATAAATTGATAATTATCACACCCATAAATTGATATTGCCTCTGATCATAGTCAGACCAACATTGCTACGACCCGTATTCGCACCGACAC”, the “relative integration efficiency (log2)” value is -1.3 ± 0.19.
The result for “ACATTTGTTGATACAACCATAAAATGATAATTACACCCATAAATTCATCATTATCACACCCAATTTAACTATAACGCTCTGATCATAGTCAGACCAACATTGCTACGACCCGTATTCGCACCGACAC” reads -2.36 ± 0.48; that for “ACATTTGTTGATACAACCATAAAATCATCATTACCCCCATCAATTGATAATTATCACACCCCATTTAACTATAACGCTCTGATCATAGTCAGACCAACATTGCTACGACCCGTATTCGCACCGACAC”, -5.76 ± 0.07.
To “ACATTTGTTGATACAACCATAAAATGATAATTAACAACATAAATTGATAATTATCACACCCATAAATTGATATTGCCTCTGATCATAGTCAGACCAACATTGCTACGACCCGTATTCGCACCGACAC” belongs -0.394 ± 0.018; to “ACATTTGTTGATACAACCATATATTGATATCTCCAACCATATATTGATATCTCTCACAACCATATATTGATATCTCCTCTGATCATAGTCAGACCAACATTGCTACGACCCGTATTCGCACCGACAC”, -0.859 ± 0.14.
For the sequence “ACATTTGTTGATACAACCATAAAATCATAATTACCCCCATAAATTGATAATTATCCCACCCAATTTAACTATAACGCTCTGATCATAGTCAGACCAACATTGCTACGACCCGTATTCGCACCGACAC”, the “relative integration efficiency (log2)” value is -0.611 ± 0.71.
To “ACATTTGTTGATCACCCCATAAAATGATAATTACACCCATAAATTGATAATTATCACACCCATAAATTGATATTGCCTCTGATCATAGTCAGACCAACATTGCTACGACCCGTATTCGCACCGACAC” belongs -0.839 ± 0.08; to “ACATTTGTTGATACAACCATAAAATGATAATTACTCTGATCATAGTCAGACACCCATAAATTGATAATTATCAGTGGGTATTTAACTATAACGCCAACATTGCTACGACCCGTATTCGCACCGACAC”, -1.71 ± 0.23; to “ACATTTGTTGAATGTACCATAAAATGATAATTACACCCATAAATTGATAATTATCACACCCATAAATTGATATTGCCTCTGATCATAGTCAGACCAACATTGCTACGACCCGTATTCGCACCGACAC”, -0.836 ± 0.071.
The result for “ACATTTGTTGATACAACCATAAAATGATAATTACACCCATAAATTGATAATTATCCACCCATAAATTGATATTGCCTCTGATCATAGTCAGACCAACATTGCTACGACCCGTATTCGCACCGACACT” reads -0.433 ± 0.14.
Take “ACATTTGTTGATACAACCATAAAATCATAATTCACCCATAAATTGATAATTATCACACCCACATTTAACTATAACGCTCTGATCATAGTCAGACCAACATTGCTACGACCCGTATTCGCACCGACAC”: the “relative integration efficiency (log2)” value was -4.53 ± 0.24.
For “ACATTTGTTGATACAACCATAAAAGGATCATTCACCCATAAATTGATAATTATCACACCCACATTTAACTATAACGCTCTGATCATAGTCAGACCAACATTGCTACGACCCGTATTCGCACCGACAC”, the “relative integration efficiency (log2)” value is -3.13 ± 0.14.
To “ACATTTGTGGATACAACCCTAAAATGATAATTACACCCATAAATTCATCATTATCACACCCAATTTAACTATAACGCTCTGATCATAGTCAGACCAACATTGCTACGACCCGTATTCGCACCGACAC” belongs -4.92 ± 0.15; to “ACATTTGTTGATACACCCATAAATTGATAATTACAACCATAAAGTGATATTTATCACAACCATATATTGATATCTCCTCTGATCATAGTCAGACCAACATTGCTACGACCCGTATTCGCACCGACAC”, -0.0337 ± 0.3.
The result for “ACATTTGTTTATACAACCATAAAATGATAATTACACCCATAAATTCATAATTATCACACCCAATTTAACTATAACGCTCTGATCATAGTCAGACCAACATTGCTACGACCCGTATTCGCACCGACAC” reads -2.45 ± 0.3; that for “ACATTTGTTGATACAACCATAAAATCATCATTACACCCATAAATTGATAATTATCACACCCAATTTAACTATAACGCTCTGATCATAGTCAGACCAACATTGCTACGACCCGTATTCGCACCGACAC”, -3.16 ± 0.25.
